# Measured values: US6706266, “Oncostatin M antagonists” (SmithKline Beecham Corporation)
# Positions count from the first letter of the chain named. Numbers in names are those of the source. Where “and” joins values, the source holds several entries; their conditions need not be identical. Equal values may be shown once.
# T1: gp130-Fc fusion protein (human, UniProt P40189 23-619)
# T1 construct: extracellular domain; not shown: Fc fragment of human IgG1
# T1 sequence (looked up): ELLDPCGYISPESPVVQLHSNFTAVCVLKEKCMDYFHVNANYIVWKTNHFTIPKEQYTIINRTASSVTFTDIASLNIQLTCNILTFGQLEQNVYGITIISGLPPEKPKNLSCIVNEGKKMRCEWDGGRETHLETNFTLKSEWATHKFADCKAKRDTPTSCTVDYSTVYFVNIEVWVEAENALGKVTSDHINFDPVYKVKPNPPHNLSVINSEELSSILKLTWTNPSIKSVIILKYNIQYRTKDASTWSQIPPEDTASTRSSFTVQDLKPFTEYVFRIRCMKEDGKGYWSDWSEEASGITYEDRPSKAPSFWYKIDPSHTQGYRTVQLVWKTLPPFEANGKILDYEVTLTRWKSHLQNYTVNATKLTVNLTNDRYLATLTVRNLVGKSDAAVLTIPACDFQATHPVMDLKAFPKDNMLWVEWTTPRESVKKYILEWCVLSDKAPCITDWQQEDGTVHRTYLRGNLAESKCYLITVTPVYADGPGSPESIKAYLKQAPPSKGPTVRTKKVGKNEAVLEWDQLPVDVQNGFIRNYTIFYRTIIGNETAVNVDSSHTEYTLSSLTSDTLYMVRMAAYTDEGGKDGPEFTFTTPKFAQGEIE
# T2: gp130 on HepG2 B6 cells (UniProt P40189 23-918, limits assumed)
# T2 sequence (looked up): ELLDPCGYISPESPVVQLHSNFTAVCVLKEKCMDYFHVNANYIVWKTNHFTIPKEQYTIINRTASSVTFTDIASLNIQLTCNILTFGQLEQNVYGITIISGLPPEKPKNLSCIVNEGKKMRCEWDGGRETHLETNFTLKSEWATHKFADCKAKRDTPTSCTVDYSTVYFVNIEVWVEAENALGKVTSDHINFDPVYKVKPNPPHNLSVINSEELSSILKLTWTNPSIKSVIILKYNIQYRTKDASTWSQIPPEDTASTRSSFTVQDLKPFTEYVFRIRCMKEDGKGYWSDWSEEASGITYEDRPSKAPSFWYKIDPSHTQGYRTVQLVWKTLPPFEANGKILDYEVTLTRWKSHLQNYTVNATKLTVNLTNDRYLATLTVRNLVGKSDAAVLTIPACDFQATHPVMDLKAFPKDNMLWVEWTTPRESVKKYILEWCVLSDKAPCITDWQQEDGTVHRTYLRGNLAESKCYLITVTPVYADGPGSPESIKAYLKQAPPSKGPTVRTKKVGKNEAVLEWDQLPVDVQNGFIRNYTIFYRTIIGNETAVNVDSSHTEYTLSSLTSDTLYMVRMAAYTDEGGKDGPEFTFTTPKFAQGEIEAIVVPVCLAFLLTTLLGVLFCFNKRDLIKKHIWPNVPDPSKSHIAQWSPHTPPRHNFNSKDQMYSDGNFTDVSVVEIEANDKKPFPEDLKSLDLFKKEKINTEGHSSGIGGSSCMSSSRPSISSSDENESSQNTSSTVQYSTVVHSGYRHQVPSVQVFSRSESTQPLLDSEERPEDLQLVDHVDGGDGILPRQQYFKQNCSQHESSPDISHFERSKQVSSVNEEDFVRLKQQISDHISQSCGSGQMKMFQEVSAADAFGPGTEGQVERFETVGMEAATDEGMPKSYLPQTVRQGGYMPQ
# B1: wild type OSM-GST fusion (ligand)
# chain: AAIGSCSKEYRVLLGQLQKQTDLMQDTSRLLDPYIRIQGLDVPKLREHCRERPGAFPSEETLRGLGRRGFLQTLNATLGCVLHRLADLEQRLPKAQDLERSGLNIEDLEKLQMARPNILGLRNNIYCMAQLLDNSDTAEPTKAGRGASQPPTPTPASDAFQRKLEGCRFLHGYHRFMHSVGRVFSKWGESPNRSRR
# notes: pGEX-derived fusion; also called wt OSM-GST; GST-hOSM; not shown: glutathione S-transferase (GST) encoded by modified pGEX-3X (Pharmacia), N-terminal, up to the Factor Xa site region sho
# B2: OSM-GST mutant L13A (ligand)
# chain: B1 chain with L13A
# notes: Alanine mutant of m4; also called (6)L13A; 6 L13A; not shown: Its linker is left out
# B3: OSM-GST mutant N123A (ligand, not shown: a dimerising Fc or GST; large carriers; small tags and cut ends)
# chain: B1 chain with N123A
# notes: Alanine mutant of m4; also called (22)N123A; 22 N123A
# B4: OSM-GST mutant K8A (ligand, not shown: a dimerising Fc or GST; large carriers; small tags and cut ends)
# chain: B1 chain with K8A
# notes: Alanine mutant of m4; also called (2)K8A; 2 K8A
# B5: OSM-GST mutant N124A (ligand, not shown: a dimerising Fc or GST; large carriers; small tags and cut ends)
# chain: B1 chain with N124A
# notes: Alanine mutant of m4; also called (23)N124A; 23 N124A
# B6: OSM-GST mutant D26A (ligand, not shown: a dimerising Fc or GST; large carriers; small tags and cut ends)
# chain: B1 chain with D26A
# notes: Alanine mutant of m4; also called (27)D26A; 27 D26A
# B7: OSM-GST mutant M113A (ligand, not shown: a dimerising Fc or GST; large carriers; small tags and cut ends)
# chain: B1 chain with M113A
# notes: Alanine mutant of m4; also called (16)M113; 16 M113A
# B8: OSM-GST mutant L14A (ligand)
# chain: B1 chain with L14A
# notes: Alanine mutant of m4; also called (7)L14A; 7 L14A; not shown: Its linker is left out
# B9: OSM-GST mutant Q20A (ligand)
# chain: B1 chain with Q20A
# notes: Alanine mutant of m4; also called (13)Q20A; 13 Q20A; not shown: Its linker is left out
# B10: OSM-GST mutant G15A (ligand)
# chain: B1 chain with G15A
# notes: Alanine mutant of m4; also called (8)G15A; 8 G15A; not shown: Its linker is left out
# B11: OSM-GST mutant K19A (ligand)
# chain: B1 chain with K19A
# notes: Alanine mutant of m4; also called (12)K19A; 12 K19A; not shown: Its linker is left out
# B12: OSM-GST mutant L119A (ligand, not shown: a dimerising Fc or GST; large carriers; small tags and cut ends)
# chain: B1 chain with L119A
# notes: Alanine mutant of m4; also called (19)L119A; 19 L119A
# B13: OSM-GST mutant E9A (ligand, not shown: a dimerising Fc or GST; large carriers; small tags and cut ends)
# chain: B1 chain with E9A
# notes: Alanine mutant of m4; also called (3)E9A; 3 E9A
# B14: OSM-GST mutant P116A (ligand, not shown: a dimerising Fc or GST; large carriers; small tags and cut ends)
# chain: B1 chain with P116A
# notes: Alanine mutant of m4; also called (17)P116A; 17 P116A
# B15: OSM-GST mutant G120A (ligand, not shown: a dimerising Fc or GST; large carriers; small tags and cut ends)
# chain: B1 chain with G120A
# notes: Alanine mutant of m4; also called (20)G120; 20 G120A
# B16: OSM-GST mutant L17A (ligand)
# chain: B1 chain with L17A
# notes: Alanine mutant of m4; also called (10)L17A; 10 L17A; not shown: Its linker is left out
# B17: OSM-GST mutant N117A (ligand, not shown: a dimerising Fc or GST; large carriers; small tags and cut ends)
# chain: B1 chain with N117A
# notes: Alanine mutant of m4; also called (18)N117A; 18 N117A
# B18: OSM-GST mutant D22A (ligand, not shown: a dimerising Fc or GST; large carriers; small tags and cut ends)
# chain: B1 chain with D22A
# notes: Alanine mutant of m4; also called (15)D22; 15 D22
# B19: OSM-GST mutant Q16A (ligand)
# chain: B1 chain with Q16A
# notes: Alanine mutant of m4; also called (9)Q16A; 9 Q16A; not shown: Its linker is left out
# Molecular target: T1, gp130-Fc fusion protein
# Experiment: competition ELISA: OSM-GST titrated against plate-bound wt OSM for gp130-Fc; mean
# Method: (§1) Plates were washed (×6 in PBS 0.05% tween 20, using Skatron Plate washer), tapped dry and blocked to reduce non-specific binding (200 µl/well, 1% BSA/PBS). Following 1 h incubation (room temperature on a shaking platform) the plates were tapped dry and wild type (wt) or mutant OSM-GST from Example 9b added (50 µl/well, 20–0.002 µg/ml, titrated in 1%BSA/PBS). As a positive control polyclonal anti-human OSM antibody (R&D Systems) was also tested (20–0.02 µg/ml). […] Following a 5 h incubation (room temperature on a shaking platform) the plates were washed (×6) and developed using ELISA Amplification System (Life Technologies) as manufacturer's instructions and the OD measured at 490 nm.
row,IC50 [µg/mL],Binder
1,0.139,B1
2,2.53,B2
3,2.96,B3
4,0.138,B4
5,1.99,B5
6,0.31,B6
7,0.321,B7
8,0.514,B8
9,5,B9
10,0.155,B10
11,0.116,B11
12,0.255,B12
13,0.156,B13
14,0.199,B14
15,3.09,B15
16,1.82,B16
17,0.785,B17
18,0.071,B18

# Molecular target: T1, gp130-Fc fusion protein
# Experiment: competition ELISA: OSM-GST titrated against plate-bound wt OSM for gp130-Fc; single experiment
# Method: as §1
row,IC50,Binder
1,> 10 µg/mL,B19
2,2.96 µg/mL and 1.99 µg/mL and 2.64 µg/mL,B2
3,1.63 µg/mL and 1.95 µg/mL and 2.38 µg/mL,B5
4,0.17 µg/mL and 0.28 µg/mL and 0.481 µg/mL,B6
5,0.511 µg/mL and 0.199 µg/mL and 0.252 µg/mL,B7
6,0.66 µg/mL and 0.47 µg/mL and 0.412 µg/mL,B8
7,4.13 µg/mL and 5.57 µg/mL and 4.1 µg/mL and 6.2 µg/mL,B9
8,0.09 µg/mL and 0.203 µg/mL and 0.171 µg/mL,B10
9,0.272 µg/mL and 0.266 µg/mL and 0.227 µg/mL,B12
10,0.208 µg/mL and 0.163 µg/mL and 0.097 µg/mL,B13
11,0.232 µg/mL and 0.169 µg/mL and 0.197 µg/mL,B14
12,3.65 µg/mL and 2.68 µg/mL and 2.95 µg/mL,B15
13,2.21 µg/mL and 1.9 µg/mL and 1.35 µg/mL,B16
14,0.983 µg/mL and 0.756 µg/mL and 0.617 µg/mL,B17
15,0.04 µg/mL and 0.08 µg/mL and 0.092 µg/mL,B18

# Molecular target: T2, gp130 on HepG2 B6 cells
# Experiment: cell-based or functional assay
sPAP HepG2 B6 assay: Expt 1 % (EC50 as % of wild type EC50) [%],sPAP HepG2 B6 assay: Expt 1 EC50 [µg/mL],sPAP HepG2 B6 assay: Expt 2 % (EC50 as % of wild type EC50) [%],sPAP HepG2 B6 assay: Expt 2 EC50 [µg/mL],sPAP HepG2 B6 assay: Mean % of wild type EC50 [%],Binder
100,0.024,100,0.032,100,B1
269,0.0657,171,0.0549,220,B2
157,0.0379,154,0.0497,156,B3
66,0.016,38,0.0125,52,B4
125,0.0302,113,0.0362,119,B5
81,0.0195,79,0.0255,80,B6
106,0.0256,78,0.025,92,B7
81,0.0194,77,0.0249,79,B8
87,0.021,55,0.0178,71,B10
98,0.0236,37,0.0119,67.5,B11
115,0.0278,72,0.023,93.5,B12
98,0.0236,27,0.0089,62.5,B13
104,0.025,47,0.015,75.5,B14
301,0.0727,174,0.056,238,B16
241,0.058,132,0.0425,186,B17
152,0.0367,50,0.016,101,B18
